Results published in article PMC11188183.

Assays:
[1] = target: kinesin family member C1 (KIFC1) (human) (UniProt Q9BW19); test: affinity purification with mass spectrometry; anti-KIFC1 antibody (Abcam ab172620) crosslinked to magnetic beads; nuclear lysate of HCC1806 (AA) cells; LC-MS/MS of the eluate
[2] = target: kinesin family member C1 (KIFC1) (human) (UniProt Q9BW19); test: affinity purification with mass spectrometry; anti-KIFC1 antibody (Abcam ab172620) crosslinked to magnetic beads; nuclear lysate of MDA-MB-468 (AA) cells; LC-MS/MS of the eluate
[3] = target: kinesin family member C1 (KIFC1) (human) (UniProt Q9BW19)

UniProt Q9BW19, sequence (Q9BW19 whole entry): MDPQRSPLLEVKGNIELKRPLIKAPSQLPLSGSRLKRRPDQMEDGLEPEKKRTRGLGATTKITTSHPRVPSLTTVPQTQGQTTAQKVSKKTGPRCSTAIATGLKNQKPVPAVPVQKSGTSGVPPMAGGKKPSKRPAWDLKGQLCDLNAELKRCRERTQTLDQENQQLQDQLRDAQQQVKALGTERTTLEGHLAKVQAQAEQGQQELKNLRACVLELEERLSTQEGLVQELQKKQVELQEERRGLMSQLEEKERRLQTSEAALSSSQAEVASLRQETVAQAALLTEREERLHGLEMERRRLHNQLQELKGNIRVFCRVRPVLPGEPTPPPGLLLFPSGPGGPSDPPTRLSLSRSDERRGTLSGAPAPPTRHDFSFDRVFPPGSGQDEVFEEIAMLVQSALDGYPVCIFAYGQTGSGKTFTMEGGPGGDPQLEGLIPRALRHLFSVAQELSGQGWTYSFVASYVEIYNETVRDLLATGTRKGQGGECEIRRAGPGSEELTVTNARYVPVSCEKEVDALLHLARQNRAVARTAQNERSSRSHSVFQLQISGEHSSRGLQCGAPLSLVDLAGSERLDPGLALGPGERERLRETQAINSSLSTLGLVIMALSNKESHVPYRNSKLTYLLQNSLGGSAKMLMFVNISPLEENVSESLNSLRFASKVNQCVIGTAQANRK

relative abundance of MYH9 in the nKIFC1 immunoprecipitate, fold over MDA-MB-231 [1]: 1.6 fold
relative abundance of MYH9 in the nKIFC1 immunoprecipitate, fold over MDA-MB-231 [2]: 1.8 fold
BrdU cell proliferation of AA TNBC cells treated with CW069 + blebbistatin [3]: 1.5 fold
Substance: myosin heavy chain 9 (MYH9) (from UniProt P35579 1-1960) (natural protein)
